The values below come from patent US9789130B2, “Method for blocking HIV entry into dendritic cells by inhibiting sialoadhesin-sialyllactose binding interactions with gangliosides” (LABORATORIOS DEL DR. ESTEVE, S.A., priority 2011, dated 2017).

The assay has as its target T1, Siglec-1 (Homo sapiens, UniProt Q9BZZ2).
T1 construct: Siglec-1 expressed in LPS mDCs capture distinct ganglioside containing vesicles; endogenous in cells; host or cells: LPS-matured monocyte-derived dendritic cells (LPS mDCs) from donor PBMCs
The assay is described as follows: VLP capture by LPS mDCs pre-incubated with α-Siglec-1 mAbs. Particulars: 2 μg/ml mAb 7D2 treated with at least 100-fold molar excess of human recombinant protein. The format is cell-based. As for the experimental part:
FIG. 11. Siglec-1 expressed in LPS mDCs capture distinct ganglioside containing vesicles, such as HIV-1 viral-like particles, liposomes, and exosomes. Capture of VLPHIV-Gag-eGFP by LPS mDCs that had been pre-incubated with decreasing concentrations of α-Siglec-1 mAb 7D2 before VLP exposure for 30 min at 37° C.
FIG. 12. Capture of VLPHIV-Gag-eGFP by LPS mDCs that had been pre-incubated with or without 2 μg/ml of α-Siglec-1 mAb 7D2 previously treated or not with at least a 100-fold molar excess of the indicated human recombinant proteins. Of note, Siglec-14 shares 100% of amino acid homology with Siglec-5 in the V-set domain.
FIG. 13. Blocking effect of α-Siglec-1 mAb 7-239. (A) Capture of VLPHIV-Gag-eGFP by LPS mDCs that had been pre-incubated with decreasing concentrations of α-Siglec-1 mAb 7-239 before VLP exposure for 30 min at 37° C. […] (B) Capture of VLPHIV-Gag-eGFP by LPS mDCs that had been pre-incubated with 10 μg/ml of the indicated mAbs before VLP exposure for 3 h at 37° C.

T1 sequence (Q9BZZ2 20-1709): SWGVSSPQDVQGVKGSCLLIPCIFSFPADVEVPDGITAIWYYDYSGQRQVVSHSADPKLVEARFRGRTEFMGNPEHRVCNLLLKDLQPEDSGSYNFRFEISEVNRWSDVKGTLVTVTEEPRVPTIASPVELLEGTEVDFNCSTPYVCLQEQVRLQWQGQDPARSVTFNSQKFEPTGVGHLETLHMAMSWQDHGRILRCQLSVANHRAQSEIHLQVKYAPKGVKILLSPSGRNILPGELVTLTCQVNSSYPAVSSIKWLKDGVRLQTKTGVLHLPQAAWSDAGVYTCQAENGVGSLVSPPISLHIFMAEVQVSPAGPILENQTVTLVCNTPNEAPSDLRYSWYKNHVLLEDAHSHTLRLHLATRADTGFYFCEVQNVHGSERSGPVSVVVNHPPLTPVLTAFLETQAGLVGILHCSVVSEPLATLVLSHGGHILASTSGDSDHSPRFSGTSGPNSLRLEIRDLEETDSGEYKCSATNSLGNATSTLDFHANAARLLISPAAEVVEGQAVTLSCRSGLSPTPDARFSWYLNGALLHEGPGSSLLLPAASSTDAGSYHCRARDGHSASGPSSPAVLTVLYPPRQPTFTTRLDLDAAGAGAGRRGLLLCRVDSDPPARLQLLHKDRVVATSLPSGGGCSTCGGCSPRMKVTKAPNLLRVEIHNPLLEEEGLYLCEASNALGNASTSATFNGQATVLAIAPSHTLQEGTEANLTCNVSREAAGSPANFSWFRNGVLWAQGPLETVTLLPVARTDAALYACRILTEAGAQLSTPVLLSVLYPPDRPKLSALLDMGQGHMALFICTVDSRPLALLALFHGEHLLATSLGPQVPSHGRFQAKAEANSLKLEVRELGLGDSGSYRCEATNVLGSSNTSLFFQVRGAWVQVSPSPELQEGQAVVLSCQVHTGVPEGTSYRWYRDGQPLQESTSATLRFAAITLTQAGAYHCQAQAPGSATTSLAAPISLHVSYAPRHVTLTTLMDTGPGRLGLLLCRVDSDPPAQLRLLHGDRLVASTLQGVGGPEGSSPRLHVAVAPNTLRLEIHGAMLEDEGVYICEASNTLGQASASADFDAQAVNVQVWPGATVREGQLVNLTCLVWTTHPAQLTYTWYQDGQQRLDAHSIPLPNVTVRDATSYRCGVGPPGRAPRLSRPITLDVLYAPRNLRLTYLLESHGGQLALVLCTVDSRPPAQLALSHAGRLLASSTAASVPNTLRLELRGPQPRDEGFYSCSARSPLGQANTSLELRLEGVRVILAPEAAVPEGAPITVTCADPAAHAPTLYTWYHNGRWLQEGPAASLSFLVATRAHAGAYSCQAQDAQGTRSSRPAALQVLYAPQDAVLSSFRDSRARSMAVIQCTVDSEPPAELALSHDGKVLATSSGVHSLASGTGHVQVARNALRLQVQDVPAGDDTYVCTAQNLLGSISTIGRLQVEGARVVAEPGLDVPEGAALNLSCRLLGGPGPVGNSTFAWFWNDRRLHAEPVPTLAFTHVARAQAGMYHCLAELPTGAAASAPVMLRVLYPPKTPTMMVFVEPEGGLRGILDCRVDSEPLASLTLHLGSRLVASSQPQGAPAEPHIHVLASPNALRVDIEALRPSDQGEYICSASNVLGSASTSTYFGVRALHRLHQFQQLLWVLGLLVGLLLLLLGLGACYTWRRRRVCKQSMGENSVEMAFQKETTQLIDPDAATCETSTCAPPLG

B1: purified Siglec-7: human recombinant Siglec-7 protein used to pre-treat mAb 7D2 (protein, UniProt Q9Y286 19-467, looked up)
Sialic acid-binding Ig-like …: QKSNRKDYSLTMQSSVTVQEGMCVHVRCSFSYPVDSQTDSDPVHGYWFRAGNDISWKAPVATNNPAWAVQEETRDRFHLLGDPQTKNCTLSIRDARMSDAGRYFFRMEKGNIKWNYKYDQLSVNVTALTHRPNILIPGTLESGCFQNLTCSVPWACEQGTPPMISWMGTSVSPLHPSTTRSSVLTLIPQPQHHGTSLTCQVTLPGAGVTTNRTIQLNVSYPPQNLTVTVFQGEGTASTALGNSSSLSVLEGQSLRLVCAVDSNPPARLSWTWRSLTLYPSQPSNPLVLELQVHLGDEGEFTCRAQNSLGSQHVSLNLSLQQEYTGKMRPVSGVLLGAVGGAGATALVFLSFCVIFIVVRSCRKKSARPAADVGDIGMKDANTIRGSASQGNLTESWADDNPRHHGLAAHSSGEEREIQYAPLSFHKGEPQDLSGQEATNNEYSEIKIPK
On to B1, for which the “VLP capture by LPS mDCs with mAb 7D2 pre-incubated with purified protein” value is given as “had no effect”.

B2: CD83: human recombinant CD83 protein used to pre-treat mAb 7D2 (protein, UniProt Q01151 20-205, looked up)
CD83 antigen: TPEVKVACSEDVDLPCTAPWDPQVPYTVSWVKLLEGGEERMETPQEDHLRGQHYHQKGQNGSFDAPNERPYSLKIRNTTSCNSGTYRCTLQDPDGQRNLSGKVILRVTGCPAQRKEETFKKYRAEIVLLLALVIFYLTLIIFTCKFARLQSIFPDFSKAGMERAFLPVTSPNKHLGLVTPHKTELV
Consider B2, for which the “VLP capture by LPS mDCs with mAb 7D2 pre-incubated with purified protein” value was “had no effect”.
